The results in this text go back to US20200087380A1 (Chugai, published 2020).

Residue numbers refer to the chain shown, from its start. Names may count otherwise. “And” between values parts separate entries of the source, which are not always exact repeats. Equal entries are not always repeated.

Sequences and labels used below:
T1: hIL6R (human, UniProt P08887 20-357, limits assumed)
T1 construct: Printed as hIL6R
T1 sequence (looked up): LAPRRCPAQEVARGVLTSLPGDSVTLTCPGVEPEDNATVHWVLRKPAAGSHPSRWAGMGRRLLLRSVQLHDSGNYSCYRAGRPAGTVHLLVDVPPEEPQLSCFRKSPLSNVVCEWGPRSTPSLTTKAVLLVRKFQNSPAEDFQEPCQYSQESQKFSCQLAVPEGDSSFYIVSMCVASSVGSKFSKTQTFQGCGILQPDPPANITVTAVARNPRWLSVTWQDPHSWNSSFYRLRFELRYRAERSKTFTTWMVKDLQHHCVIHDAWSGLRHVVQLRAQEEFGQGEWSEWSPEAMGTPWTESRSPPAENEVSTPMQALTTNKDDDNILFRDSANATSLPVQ

B1: anti-GPC3 antibody with H chain constant region TH13 (K147E, Q175E) and L chain constant region TL16 (T180K, S131K, Q160K) (antibody, human IgG1, kappa)
heavy: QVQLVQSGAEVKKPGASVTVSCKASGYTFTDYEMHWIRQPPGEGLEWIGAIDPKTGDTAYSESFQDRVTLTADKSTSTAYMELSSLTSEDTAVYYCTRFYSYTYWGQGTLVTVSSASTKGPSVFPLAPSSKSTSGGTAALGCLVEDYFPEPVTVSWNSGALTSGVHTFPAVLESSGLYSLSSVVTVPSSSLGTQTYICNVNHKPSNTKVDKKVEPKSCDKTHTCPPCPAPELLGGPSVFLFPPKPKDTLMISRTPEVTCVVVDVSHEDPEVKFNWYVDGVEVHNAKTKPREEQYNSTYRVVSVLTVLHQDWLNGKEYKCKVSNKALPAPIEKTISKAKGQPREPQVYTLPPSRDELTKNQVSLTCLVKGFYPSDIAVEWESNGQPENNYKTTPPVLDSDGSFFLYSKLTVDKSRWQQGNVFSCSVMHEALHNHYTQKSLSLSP
light: DIVMTQSPLSLPVTPGEPASISCQASESLVHSNRNTYLHWYLQKPGQSPQLLIYKVSNRFSGVPDRFSGSGSGTDFTLKISRVEAEDVGVYYCSQNTHVPPTFGQGTKVEIERTVAAPSVFIFPPSDEQLKSGTAKVVCLLNNFYPREAKVQWKVDNALQSGNSKESVTEQDSKDSTYSLSSTLKLSKADYEKHKVYACEVTHQGLSSPVTKSFNRGEC
notes: IgG1/kappa; also called TH13/TL16
B2: anti-GPC3 antibody with H chain constant region TH2 (Q175K) and L chain constant region TL17 (T180E, S131E, Q160E) (antibody, human IgG1, kappa)
heavy: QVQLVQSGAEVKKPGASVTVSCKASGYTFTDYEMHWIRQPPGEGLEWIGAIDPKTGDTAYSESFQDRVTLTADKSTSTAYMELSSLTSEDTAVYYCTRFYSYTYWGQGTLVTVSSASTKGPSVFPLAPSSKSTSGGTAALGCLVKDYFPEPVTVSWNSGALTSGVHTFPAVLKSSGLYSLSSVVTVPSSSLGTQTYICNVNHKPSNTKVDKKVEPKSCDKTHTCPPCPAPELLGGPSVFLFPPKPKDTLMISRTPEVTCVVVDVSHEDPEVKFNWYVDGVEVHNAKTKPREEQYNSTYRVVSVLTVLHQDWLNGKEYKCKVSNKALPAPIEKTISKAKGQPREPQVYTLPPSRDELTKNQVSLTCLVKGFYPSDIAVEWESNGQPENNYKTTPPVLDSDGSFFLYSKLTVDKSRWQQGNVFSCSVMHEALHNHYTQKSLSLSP
light: B1 light with K136E, K165E, K185E
notes: IgG1/kappa; also called TH2/TL17
B3: anti-GPC3 antibody with H chain constant region TH15 (K147E, Q175E, K213E) and L chain constant region TL19 (T180K, S131K, Q160K, E123K) (antibody, human IgG1, kappa)
heavy: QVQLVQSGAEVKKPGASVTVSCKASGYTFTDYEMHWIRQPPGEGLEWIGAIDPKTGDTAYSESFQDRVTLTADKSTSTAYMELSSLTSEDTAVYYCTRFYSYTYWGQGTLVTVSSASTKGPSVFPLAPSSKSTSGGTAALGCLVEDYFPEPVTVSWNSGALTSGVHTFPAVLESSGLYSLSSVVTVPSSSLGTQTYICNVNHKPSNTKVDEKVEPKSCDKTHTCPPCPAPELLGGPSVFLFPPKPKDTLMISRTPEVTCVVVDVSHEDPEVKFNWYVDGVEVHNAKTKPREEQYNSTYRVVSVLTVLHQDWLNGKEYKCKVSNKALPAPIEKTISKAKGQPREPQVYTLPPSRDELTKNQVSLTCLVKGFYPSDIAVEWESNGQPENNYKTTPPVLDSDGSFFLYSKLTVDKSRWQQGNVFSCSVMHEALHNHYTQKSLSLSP
light: B1 light with E128K
notes: IgG1/kappa; also called TH15/TL19
B4: anti-GPC3 antibody with H chain constant region G1d and L chain constant region k0 (GpH7-G1d / GpL16-k0) (antibody, human IgG1, kappa)
heavy: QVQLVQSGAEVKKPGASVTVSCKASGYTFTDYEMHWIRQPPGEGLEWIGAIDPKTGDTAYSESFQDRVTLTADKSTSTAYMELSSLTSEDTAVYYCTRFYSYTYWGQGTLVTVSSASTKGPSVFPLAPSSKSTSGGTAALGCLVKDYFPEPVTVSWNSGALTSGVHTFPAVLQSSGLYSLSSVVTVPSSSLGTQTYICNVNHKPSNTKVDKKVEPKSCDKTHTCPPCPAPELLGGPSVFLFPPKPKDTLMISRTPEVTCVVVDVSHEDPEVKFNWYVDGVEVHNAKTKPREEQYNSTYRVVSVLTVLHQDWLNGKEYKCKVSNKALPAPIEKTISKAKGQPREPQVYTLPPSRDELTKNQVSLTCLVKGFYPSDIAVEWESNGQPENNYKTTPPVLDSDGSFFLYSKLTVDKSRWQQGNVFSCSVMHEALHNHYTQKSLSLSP
light: B1 light with K136S, K165Q, K185T
notes: IgG1/kappa; also called G1d/k0; native G1d/k0
B5: 4ch_001 (anti-IL6R MH0-G1d/ML0-k0 and anti-GPC3 GpH7-G1d/GpL16-k0, no CH1/CL or KiH modification) (bispecific antibody, human IgG1, kappa)
heavy 1: not shown
light 1: not shown
heavy 2: not shown
light 2: B1 light with K136S, K165Q, K185T
notes: Four chains co-expressed without pairing control
B6: 4ch_004 (anti-IL6R MH0-TH2k/ML0-TL17 and anti-GPC3 GpH7-TH13h/GpL16-TL16; KiH + CH1/CL_1) (bispecific antibody, human IgG1, kappa)
heavy 1: not shown
light 1: not shown
heavy 2: not shown
light 2: B1 light
notes: IgG1/kappa bispecific with knob (k) and hole (h) H chains
B7: 4ch_010 (anti-IL6R MH0-TH15k/ML0-TL19 and anti-GPC3 GpH7-TH2h/GpL16-TL17; KiH + CH1/CL_2) (bispecific antibody, human IgG1, kappa)
heavy 1: not shown
light 1: not shown
heavy 2: not shown
light 2: B1 light with K136E, K165E, K185E
notes: as for B6
B8: 4ch_008 (anti-IL6R MH0-TH13k/ML0-TL16 and anti-GPC3 GpH7-TH2h/GpL16-TL17; KiH + CH1/CL_1) (bispecific antibody, human IgG1, kappa)
heavy 1: not shown
light 1: not shown
heavy 2: not shown
light 2: B1 light with K136E, K165E, K185E
notes: as for B6
B9: 4ch_006 (anti-IL6R MH0-TH2k/ML0-TL17 and anti-GPC3 GpH7-TH15h/GpL16-TL19; KiH + CH1/CL_2) (bispecific antibody, human IgG1, kappa)
heavy 1: not shown
light 1: not shown
heavy 2: not shown
light 2: B1 light with E128K
notes: as for B6

T2 sequence (P51654 25-563 limits assumed): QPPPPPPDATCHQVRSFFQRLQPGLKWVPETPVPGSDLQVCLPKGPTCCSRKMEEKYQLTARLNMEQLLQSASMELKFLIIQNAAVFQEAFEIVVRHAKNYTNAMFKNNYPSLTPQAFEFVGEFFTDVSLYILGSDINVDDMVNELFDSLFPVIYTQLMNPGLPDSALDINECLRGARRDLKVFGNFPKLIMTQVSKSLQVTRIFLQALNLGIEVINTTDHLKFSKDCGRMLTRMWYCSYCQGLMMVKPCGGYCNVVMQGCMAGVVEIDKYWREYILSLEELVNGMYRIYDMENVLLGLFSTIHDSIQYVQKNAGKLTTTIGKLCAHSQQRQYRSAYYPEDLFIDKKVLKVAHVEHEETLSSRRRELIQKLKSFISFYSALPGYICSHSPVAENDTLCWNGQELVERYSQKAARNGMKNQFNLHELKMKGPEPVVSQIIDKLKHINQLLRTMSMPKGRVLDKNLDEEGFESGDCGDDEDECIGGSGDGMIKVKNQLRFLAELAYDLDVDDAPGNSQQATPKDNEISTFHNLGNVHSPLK

One test concerns the target T2, GPC3 (UniProt P51654 25-563, limits assumed).
T2 construct: also called glypican-3
Kind of test: SPR (Biacore T100), antibody captured on Protein A/G chip, antigen as analyte, 25 C, 1:1 Langmuir fit.
Procedure: (§1) Interactions between a target antibody and hIL6R or GPC3 were analyzed using Biacore T100 (GE Healthcare). HBS-EP+(GE Healthcare) was used for the running buffer, and the measurement temperature was 25° C. Protein A/G (Thermo Scientific) was immobilized on the Series S Sensor Chip CMS (GE Healthcare) by amine coupling, and was used as a chip. A target antibody was captured onto the chip, and interacted with each antigen diluted with running buffer. Antibodies captured on the chip were washed off by reacting with 10 mM glycine-HCl (pH 1.5) to regenerate the chip to be used repeatedly.
(§2) More specifically, the association rate constant ka (L/mol/s) and dissociation rate constant kd (1/s) were calculated by global fitting sensorgrams obtained by measuring with the Biacore Evaluation Software in a 1:1 Langmuir binding model, followed by calculation of dissociation constant KD (mol/L) from those values.
Molecule B1 registered a Kd of 1.5 nM, a koff of 0.0004 s⁻¹ and a kon of 270000 M⁻¹ s⁻¹.

Molecule B2 showed a Kd of 1.4 nM, a koff of 0.00039 s⁻¹ and a kon of 280000 M⁻¹ s⁻¹.

Regarding B3, the affinity, expressed as Kd, was 0.99 nM; the koff is 0.00038 s⁻¹; the kon amounted to 390000 M⁻¹ s⁻¹.

B4 gave a Kd of 1.3 nM, a koff of 0.00036 s⁻¹ and a kon of 270000 M⁻¹ s⁻¹.

A further test addresses T1, hIL6R. Described as above.
Procedure: as §1, §2
Take B5: the Kd was 2.6 nM and 2.8 nM; the koff is 0.00041 s⁻¹; the kon was determined as 150000 M⁻¹ s⁻¹.

B6 had a Kd of 2.8 nM, a koff of 0.00047 s⁻¹ and a kon of 170000 M⁻¹ s⁻¹.

The molecule B7 returned a dissociation constant Kd of 2.4 nM, a koff of 0.00059 s⁻¹ and an on-rate (kon) of 240000 M⁻¹ s⁻¹.

B8 showed a dissociation constant Kd of 2.8 nM, a koff of 0.00046 s⁻¹ and a kon of 160000 M⁻¹ s⁻¹.

Regarding B9, the Kd was determined as 2.2 nM, the koff came to 0.00043 s⁻¹ and the kon amounted to 200000 M⁻¹ s⁻¹.

The target in another test is T2, GPC3. The description is as above. The source holds these as a separate data set.
Procedure: as §1, §2
B5 displayed a dissociation constant (Kd) of 1.3 nM, a koff of 0.00036 s⁻¹ and a kon of 270000 M⁻¹ s⁻¹.

B6 came in with a dissociation constant Kd of 1.4 nM, a koff of 0.00038 s⁻¹ and a kon of 270000 M⁻¹ s⁻¹.

Molecule B7 yielded a Kd of 1.4 nM, a koff of 0.00041 s⁻¹ and a kon of 290000 M⁻¹ s⁻¹.

In the case of B8, the Kd turned out to be 1.5 nM, the koff was 0.00039 s⁻¹ and the kon was determined as 260000 M⁻¹ s⁻¹.

B9 showed a Kd of 1.2 nM, a koff of 0.00042 s⁻¹ and a kon of 340000 M⁻¹ s⁻¹.

By Kd is commonly meant the free concentration of one partner at which half of the binding sites on the other are occupied at equilibrium, for simple one-to-one binding. One may read the koff as the rate constant with which the complex falls apart. A low value points to slow dissociation. The kon is the rate constant with which the complex forms.
